System: Saccharomyces cerevisiae
Assay: transcriptional activation domain activity (GFP:mCherry ratio, weighted mean of sorted bins, harmonized to initial dataset scale) (arbitrary fluorescence ratio units); higher = stronger transcriptional activation
Conditions: beta-estradiol 1 µM; induction time 4 h
Method in brief: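 Each value is an activation activity: the read-weighted mean of bin median fluorescence, averaged across barcodes, then mapped linearly to the initial dataset scale. The tiles, fused to an estradiol-inducible synthetic transcription factor, sat at the yeast URA3 locus in GFP-reporter diploids. Cells spent 4 hours at 30 °C in SC with 1 uM beta-estradiol before sorting into 8 GFP:mCherry bins, and tiles below 50 reads were removed.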

ESSEEDEEGGEGEGRKAKRNRMALSCKECKRRKIKCDRAMPSCGPCSKRGASS
transcriptional activation domain activity: 27200

CKAHCGYILGHINIFQPLNWIFVKSSKVFPIDYILYLLLVLFFFCSSVVGIAT
transcriptional activation domain activity: 28100

MVTISTDWFGWFVYLRFSGHLGVNCFYFIIRFFLFWVAFQLHVCIFSLPLVSC
transcriptional activation domain activity: 51400

MSLPIHRLLSYTCSIIYLLVHHLYFVFSFFIPVYFIQAQFFFAAFPFILFFIC
transcriptional activation domain activity: 66900

RGWMVYIGFLVVFYSAAGFGLSVVNNFTLLIGVYKFVYPITTTLFQLIFTQIF
transcriptional activation domain activity: 50200

RPLSEASRDLALPSVTRVWCDEKDNIFYMQDVNFVTDITKVLLVSVLSTVARC
transcriptional activation domain activity: 47600

KPLSIILGLVNVFVLYNYLSTGVSLWMISLRFSSFSCRFLADVFSCLLVFLLC
transcriptional activation domain activity: 60600

LGLSIWTPWKDVYTRLPKRIYAKLLATAEMEVKYKPKVLVSQIWNAVIISMYR
transcriptional activation domain activity: 61600

GPRDVFGIRSAWKLPLSVAYWLLVCLARRKDFGSLRAVTVGHITWNQYMVGER
transcriptional activation domain activity: 58600

QKPEAAANATAVGEKKEVEEELKKVVEAKPEGKTEAGPAKEEGKAAEAAPAKA
transcriptional activation domain activity: 52800

YFLLSILFFFFSNNFTFTLLYLLHASYHIQSLYRHILVSVFCNYPSLLLFFFL
transcriptional activation domain activity: 53000

MLSQSGLPKVLGLASAFVYSWTPMILLACYTVGSLCFYLIIPSLLGEILWYIY
transcriptional activation domain activity: 60100

PIDPETGRPKKGRPRKSVDAASAVGTSSTGEPQAKRARGRPKKNAGAVAATAV
transcriptional activation domain activity: 51100

VLLILGLGNPLCSRPVKLFEWMIAALVFAVLICMTMIIVKVNVVWSQAFNGFV
transcriptional activation domain activity: 45600

GLHFERRLFHLLFSTVCISICFCLLVFNLLIQNYMKKADQKEGMAAFAEKRKP
transcriptional activation domain activity: 28000

STQCSCEDESCPCVNCLIHRSEEELNSYIQQSGVPLTNIGEAQITDKMMDYLD
transcriptional activation domain activity: 56900

IRSSSHLFPISPFYFVFLFWSSFSVFTMLLLPPTIPRSNQFRAFSSFLWFSWI
transcriptional activation domain activity: 67000

FDNSGFQRLESLCACLAAIKSWMDIFLKFPPLEYAHLSFTFWAQLMKCIVVLY
transcriptional activation domain activity: 61900

MDSGGRLEVHLFFFLLLFVQMWFSWVYFLFSLVFLTLLTRDLGGLLLLVYSFC
transcriptional activation domain activity: 34700

GGEEEEGAPKRPAKKARPSVESEAEVKEEEEEEDAVKPKRGRRTAKSASSSRK
transcriptional activation domain activity: 27300

VERCHRNIVPNGCAVFQAGGLVVVLVEVSRKSYLASLVPVIVNAILNEHQIVV
transcriptional activation domain activity: 65300

KKSSTSSTAAPKKRTPAKKSTPAPTPSPSASPEPVKPKKTSSKKAAKPVAVAE
transcriptional activation domain activity: 25400

RPSLASSTATATATTTRPAADAASTTRAPRASLAPSTKPTTTRPAVAAAATRT
transcriptional activation domain activity: 33500

PFAFLLLLLFPLVLFLPALLLLFLPLLPLLPLLLWILWIQTLQSLFSFPDISD
transcriptional activation domain activity: 46900

PYIALIVLDVILIKLGSGRHIEYIQYVLTRATVKETEVLDFYAHIIYTTTLLI
transcriptional activation domain activity: 28800

LHFFLAFIFLLSAYFHVRGRDLTYYGVWPSMVVWGLDRFLRLLRIGVFNFRYI
transcriptional activation domain activity: 42000

AGDTSDGESASTPAHSSHQSRKQQVRHRASVACASCRERRIRCVVPEGASECT
transcriptional activation domain activity: 27400

IELSRNFVNVPDFVCFFNLPDNLSVLYTLEIVYFGQLLLFHSIIYALVLIRFW
transcriptional activation domain activity: 47900

RSRSPEPARKKVDVKQEEPLASSKWAKDDDETLRKRESELKEGLLRKKVTASL
transcriptional activation domain activity: 34800

YYGRTIVRTNFWLKTYINFEIDALLLNGRATVRRFINHLYQDQRAKLFKECKH
transcriptional activation domain activity: 54700

MRGTSLFLFYFISFLSLFLFQLLHFFFFSYFLFRYFVSIIIIFFLIQVVFGLV
transcriptional activation domain activity: 53200

YLTRHVRLFGKLFRRMQQLHATRFVTLPLSSDLILYYWSKVVQASTALPEFIA
transcriptional activation domain activity: 51600

ERQGRGQREERRREDHSRTRVPQRQGQEQREERRREDQYSRQEQQSQGLGQRK
transcriptional activation domain activity: 42100

MCIKLPLYPASFFIHRSLPLITSVFDLNLTLMVSLCPRIVPISFFACALLLVP
transcriptional activation domain activity: 53000

MNQHYGFLNCDLFFYFFFSSLFLIWPFLLFSFSFTVFPYLFTIMETYFGHIKT
transcriptional activation domain activity: 28700

GGAGKGKGAAAAAAKAAGAARDVEDIVAREPEPHHKGAGGAGKGKGAAAAAAK
transcriptional activation domain activity: 41900

EGKGKKGEKREREKRRGRGGKREKRRKREGRRRREKREGKEGGGEKEEKEGEE
transcriptional activation domain activity: 29000

LPQMGVPGEPLTLLVEFADMLIEMWHQCLAQRYYGPIYHLVALIVYTLELNAT
transcriptional activation domain activity: 54200

SHQEHVIAQLMNKVKSVSTTKPYVEYFQMPSKSVFITIVALCLYVILLKKTPS
transcriptional activation domain activity: 15500

TWPYSSLSELEDLMDRFKRMLTLLRMHLKHVAELEVMVTLWKYMGVLLEFLGS
transcriptional activation domain activity: 61800

LFFHILFPFFFFFQFLFSLFFFSFFFHSFFFLYFLFFPGGFFFQFCCFFFPSF
transcriptional activation domain activity: 44800

WGTTFRDEGSRVRVLMRRLARMMRLGGRTPCQSDHISNVHFSAPADWQSTWGT
transcriptional activation domain activity: 48000

RKARQAQGAQGGGGGGAGGPGARGGARGGRVGGERGGRGGGRGGERGRGRGRG
transcriptional activation domain activity: 51400

TQQLEFWLPWQWIQANVFFPCVSYIYFRDWREMMEILLSYRSIEMDGLAFCLV
transcriptional activation domain activity: 69300

FYLSPVMPLFPPLLKLLREYLSDPLYKDFVSAIYLWVRSVELHHMSTLCIALL
transcriptional activation domain activity: 68900

ESAKDKENAKGRKEAEKKKNKEEKERVKKESRERERESRRSAEGRKRPALASL
transcriptional activation domain activity: 25400

EVKDKVWFLEGVTQVLPQDVDEYSGGGGMHMMLDFLGGGLPSMTTTNFSDFSL
transcriptional activation domain activity: 113000

EETVTAEPAAVEEKDGGDDAMAIDTEEPKKKSKKDKKDKKRKAAAETTTATGT
transcriptional activation domain activity: 40600

MARQLYSPFFIFLYLPSCIYKNILFSSFLFFLTSLIGIFLHPFFNIVCFICQM
transcriptional activation domain activity: 58500

MFCLRFFVPLLLLPAPSAPPLLILTLLISMWFLHRPCIYCSLLIVGFLISSCS
transcriptional activation domain activity: 55900

MTLTFWFFLPLLDILSGLKFEFLPMLVFYFYFFPFASFCRFEALDIWTWILII
transcriptional activation domain activity: 48100

MHNSRSSFLVSCFFIYFFSLLVHCEGVLILTPIPFQNHLVSILECFLFYLFLF
transcriptional activation domain activity: 51600

MLDVILYLPCLLITYLCWAVWFLFIVFLCFLLCWFCFVIDGLFPFFFITFVFL
transcriptional activation domain activity: 56100

EWAPDVLRKSAKTFTQEGPMVKLQIVTLAAKLLVLSPVDPRLTLLCRYVFSLA
transcriptional activation domain activity: 46000

MVAAATARTRRAATVATRRTRPVVMAMAVVVATRNRRATTRAAGIRQAGIRRV
transcriptional activation domain activity: 45900

SDSQKSGKIWGLCCTDSFGCLDLIIGLDLSDVLLVIQWRSTCDMCTLWQRLGH
transcriptional activation domain activity: 53500

ILVGGFGLELGMNGVYPWYIFLFLACLASDFEFTMLFELTVGFFFPPLLFMCL
transcriptional activation domain activity: 51800

VPLMQFILFPPFDWLVLVASPHNPILTSEFYNHLWSLIKLITLCLPLPLFGTL
transcriptional activation domain activity: 61500

SFALCNRIVVGCAILRTGKILKSWHVARVSHFSTFVFNGVIHGSIPNMILTRK
transcriptional activation domain activity: 55100

ATEKEVKPKKAAAPKKAAAPKEKKEKVEKAEKAPKPKANAAKKVKKTASAPAV
transcriptional activation domain activity: 20200

IGLPGFTWVYVARYGSVFNLLGLGVIGVVWNWGLAAVSISNYGNCWERLINWR
transcriptional activation domain activity: 54300
